Results as given in patent US10973762B2, “Active-targeting-type polymer derivative, composition containing said polymer derivative, and uses of said polymer derivative and said composition” (Nippon Kayaku Kabushiki Kaisha, priority 2016, dated 2021).

Tests used:
[1] = Test Example 4: tissue distribution in kidney (fluorescence of sections); type: in vivo, nude mice; settings: i.v. 5 mg/kg in terms of fluorescent substance
Method: (§1) A suspension of cultured cancer cell human glioma U87MG was subcutaneously transplanted on the dorsal sides of nude mice using an injection needle-attached syringe. Example 7, Comparative Example 2, and Comparative Example 3 were dissolved in a 5% glucose injectable solution, and each of the solutions was intravenously administered a single time in an amount of 5 mg/kg in terms of 2-(2-aminoethoxy)-9-(diethylamino)-5H-benzo[a]phenoxazin-5-one.
(§2) After one hour and after 24 hours from the administration, the mice were exsanguinated under isoflurane anesthesia, and frozen embedded sections of extracted tumor and kidney were produced. Fluorescence derived from 2-(2-aminoethoxy)-9-(diethylamino)-5H-benzo[a]phenoxazin-5-one in the administered composition was observed.
(§3) Furthermore, based on those images, the luminance was calculated using Image-Pro Premier (Media Cybernetics, Inc.), and the values of luminance of tumor tissue sections are shown in FIG. 9, while the values of luminance of kidney tissue sections are shown in FIG. 11.

[2] = Average particle size, single nanoparticle size analyzer IG-1000; type: physicochemical
Method: The measurement of the average particle size of the compositions including block copolymers of Examples 3 to 10 and Comparative Examples 1 to 6 was carried out using a single nanoparticle size analyzer, IG-1000, manufactured by Shimadzu Corp. (measurement temperature: 25° C., light intensity at t=0: 100 to 200).
Regarding a sample for measuring the average particle size, a solution produced to have a concentration of 2 mg/mL or 5 mg/mL in terms of the composition weight and filtered through a 0.45-μm membrane filter, was used.

[3] = target: T1, integrin αVβ3 (Mus musculus, UniProt O54890+P43406); assay: Integrin binding assay (inhibition of biotinylated vitronectin binding); settings: dilution series, absorbance at 450 nm
T1 construct: purchased R&D Systems, Inc
T1 sequence (P43406 31-988 limits assumed): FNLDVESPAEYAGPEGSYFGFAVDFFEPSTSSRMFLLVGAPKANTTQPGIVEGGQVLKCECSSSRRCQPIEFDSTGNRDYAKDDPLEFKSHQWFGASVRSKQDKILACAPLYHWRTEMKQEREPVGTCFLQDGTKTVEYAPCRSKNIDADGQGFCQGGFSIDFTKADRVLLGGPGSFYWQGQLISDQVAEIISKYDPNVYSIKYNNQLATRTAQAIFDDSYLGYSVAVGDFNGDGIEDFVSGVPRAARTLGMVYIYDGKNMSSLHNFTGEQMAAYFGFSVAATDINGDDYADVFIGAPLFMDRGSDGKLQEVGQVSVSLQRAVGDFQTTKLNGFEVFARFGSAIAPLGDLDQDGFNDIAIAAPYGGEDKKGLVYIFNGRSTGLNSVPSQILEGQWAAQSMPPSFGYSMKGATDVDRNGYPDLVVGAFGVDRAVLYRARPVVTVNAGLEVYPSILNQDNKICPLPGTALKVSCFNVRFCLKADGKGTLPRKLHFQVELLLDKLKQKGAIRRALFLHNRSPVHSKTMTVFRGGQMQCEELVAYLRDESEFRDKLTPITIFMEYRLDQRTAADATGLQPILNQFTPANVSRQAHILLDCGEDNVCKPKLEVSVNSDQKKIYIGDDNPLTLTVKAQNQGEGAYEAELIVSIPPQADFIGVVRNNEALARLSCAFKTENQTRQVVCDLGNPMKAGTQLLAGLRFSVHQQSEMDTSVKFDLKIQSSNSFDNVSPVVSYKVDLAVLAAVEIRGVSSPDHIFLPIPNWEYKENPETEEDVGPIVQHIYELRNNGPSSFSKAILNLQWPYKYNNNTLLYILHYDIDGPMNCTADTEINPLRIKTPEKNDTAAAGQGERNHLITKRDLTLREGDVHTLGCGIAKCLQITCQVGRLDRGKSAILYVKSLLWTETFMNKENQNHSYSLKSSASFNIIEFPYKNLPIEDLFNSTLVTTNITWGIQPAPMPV
T1 sequence (O54890 26-717 limits assumed): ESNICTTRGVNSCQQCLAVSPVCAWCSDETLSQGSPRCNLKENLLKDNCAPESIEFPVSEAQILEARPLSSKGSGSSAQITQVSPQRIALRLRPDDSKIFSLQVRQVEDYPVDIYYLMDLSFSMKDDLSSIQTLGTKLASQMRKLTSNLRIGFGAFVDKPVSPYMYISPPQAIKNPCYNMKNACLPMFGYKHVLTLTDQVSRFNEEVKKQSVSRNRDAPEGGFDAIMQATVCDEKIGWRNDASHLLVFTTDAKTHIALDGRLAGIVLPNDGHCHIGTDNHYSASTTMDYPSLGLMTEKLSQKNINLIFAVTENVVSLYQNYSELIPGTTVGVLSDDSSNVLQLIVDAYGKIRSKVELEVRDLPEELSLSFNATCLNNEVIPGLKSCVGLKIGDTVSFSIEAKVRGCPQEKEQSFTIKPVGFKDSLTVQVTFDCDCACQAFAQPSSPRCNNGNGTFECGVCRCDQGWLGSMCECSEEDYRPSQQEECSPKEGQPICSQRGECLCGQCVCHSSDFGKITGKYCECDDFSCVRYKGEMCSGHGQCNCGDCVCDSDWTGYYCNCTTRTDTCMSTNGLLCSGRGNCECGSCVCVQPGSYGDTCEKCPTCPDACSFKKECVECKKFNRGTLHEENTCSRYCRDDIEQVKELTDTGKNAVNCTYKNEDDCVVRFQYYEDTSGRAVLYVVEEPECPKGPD
Method: 100 μL each of 1 μg/mL Recombinant Mouse Integrin alpha V beta 3 Protein (R&D Systems, Inc.) produced with PBS(−) was added to a 96-well Costar high capacity binding plate, and the plate was left to stand overnight at 4° C. to thereby bind integrin αVβ3 to the bottom face of the wells. Subsequently, integrin αVβ3 in the wells was removed by suctioning, and 200 μL of a Blocking/Binding buffer (50 mM Tris HCl at pH 7.4, 100 mM NaCl, 2 mM CaCl2, 1 mM MgCl2, 1 mM MnCl2, 1% BSA) was added to each well. Blocking was performed at an interval of one hour at room temperature.
100 μL of biotinylated vitronectin (1 μg/mL) obtained by biotinylated human recombinant vitronectin (Wako Pure Chemical Industries, Ltd.) was added in advance into each well using Biotin Labeling Kit-NH2 (Dojindo Molecular Technologies, Inc.), and the plate was left to stand at room temperature for 3 hours. Subsequently, the wells were washed three times using 200 μL of Blocking/Binding buffer, and 100 μL of streptavidin-HRP (GE Healthcare) diluted 10,000 times with the Blocking/Binding buffer was added to each well. The mixture was left to stand for one hour at room temperature. The wells were washed two times using 200 μL of the Blocking/Binding buffer. […]
Within 30 minutes after the addition, the absorbance at 450 nm was measured, and the binding ratio of biotinylated vitronectin to integrin αVβ3 was calculated.

[4] = Test for drug releasability into phosphate buffer solution; type: physicochemical; settings: phosphate buffer solution pH 7.4, 37° C., 6 hours, 1.0 mg/mL, absence of enzyme
Method: Example 7, Example 8, and Comparative Example 3 were respectively dissolved in a phosphate buffer solution (pH 7.4) at a concentration of 1.0 mg/mL in terms of the composition weight, and the solutions were left to stand at a constant temperature of 37° C. The amount of 7-ethyl-10-hydroxycamptothecin (EHC) released was measured over time by HPLC, and the proportion of the amount of EHC released with respect to the total amount of EHC in the compound used was determined.

[5] = system: human glioma U87MG; assay: Test Example 4: tissue distribution in tumor (fluorescence of sections); type: in vivo, nude mice; settings: one hour after i.v. administration, 5 mg/kg in terms of fluorescent substance
Method: as §1, §2, §3

Substance	distribution of fluorescence in kidney [1]	average particle size ([2]; 5 mg/mL) [nm]	inhibition of binding of vitronectin and integrin αVβ3 [3]	EHC release (proportion of EHC released with respect to total EHC) [4] [%]	distribution of fluorescence in tumor [5]	average particle size ([2]; 2 mg/mL) [nm]
7-ethyl-10-hydroxycamptothecin (EHC)-bonded and 2-(2-aminoethoxy)-9-(diethylamino)-5H-benzo[a]phenoxazin-5-one-bonded product of polyethylene glycol (12 kilodaltons)-polyglutamic acid (22.0 polymerizations) block copolymer [Comparative Example 2]	fluorescence was not recognized in areas other than in the blood vessels	23				
4-phenyl-1-butanol-bonded and 2-(2-aminoethoxy)-9-(diethylamino)-5H-benzo[a]phenoxazin-5-one-bonded product of polyethylene glycol (10 kilodaltons)-polyglutamic acid (21.0 polymerizations) block copolymer [Comparative Example 1]			not recognized			
7-ethyl-10-hydroxycamptothecin (EHC)-bonded and 2-(2-aminoethoxy)-9-(diethylamino)-5H-benzo[a]phenoxazin-5-one-bonded product of polyethylene glycol (2 kilodaltons)-polyglutamic acid (7.59 polymerizations) block copolymer [Comparative Example 3]	fluorescence was observed in the blood vessels and the renal tubules			61	penetrated into the entire tumor compared to Comparative Example 2	13
